# B1: Myxococcus xanthus DK1622 GroEL1 (natural protein, UniProt Q1D2S1 1-549, looked up)
# chain: MAKDILFDVRAREAILRGVNILADAVKVTLGPKGRNVVIEKSFGSPTITKDGVTVAKEIELENKFENMGAQMVKEVASKTSDVAGDGTTTATVLAQAIFREGAKLVAAGHNPMDIKRGIDKAVGAIVAELKKLAKPTKDKKEIAQVGTISANGDETIGTIIADAMEKVGKEGVITVEEAKGLETTLDVVEGMQFDRGYLSPYFVTDPERMEAALNDALILINEKKISSMKDLLPILEQVARAGKPLLIIAEDIEGEALATLVVNKIRGVLNVCAVKAPGFGDRRKAMLEDIATLTGGRMIAEDLGIKLDTITLQDLGRAKRITVDKDNTTIVDGAGGQQEIEARVKQIRAQIEETSSDYDREKLQERLAKLVGGVAVINVGAATETEMKEKKARVEDALNATRAAVEEGVVPGGGVAYIRCLKALDGLQLSGGEKFGVDIIRRAVEEPLRQIVGNGGLEGSVVVNKVKESSGPFGFNAATGTYEDLLAAGVIDPAKVSRTALQNAASVSSLMLTTEAMVAERPKEEKDLPAGGGMGGMGGMGGMGGMGM
# notes: printed Mw 57.9 kDa; no His-tag added; UniProt may number the two paralogues the other way round (groL2 for the gene next to groES); also called Cpn60; chaperonin GroEL; source: E. coli BL21(DE3), pET22b (pET22b-GroEL1-NoHis); purified (100-kDa cut-off concentration, Superdex 200) for the pull-down, in cell extract for native PAGE; copies: 14
# B2: Myxococcus xanthus DK1622 GroEL2 (natural protein, UniProt Q1D3Y5 1-547, looked up)
# chain: MAAKEIFFHQSAREAILRGVRTLSDAVAVTLGPKGRNVVIEKSFGSPTITKDGVTVAKEIDLENKFENMGAQMVKEVASKTSDKAGDGTTTATVLARAIYEEGLKLVAAGHSPMDLKRGIDKAVEVVVGELKSLSKPTADKKAITQVGTISANGDETIGAIIADAMEKVGKEGVITVEEAKGLETTLDVVEGMQFDRGYVSPYFVTNRERMEAVLEDPYILISEKKVSSMQDMIPLLEQVARSGKPLIIIADDIEGEALATLVVNKIRGVLNVCAVKAPGFGDRRKEMLQDIAVLTGGTVVSEDLGHKFETLTLTDLGRAKRVTVDKDNTTVVDGVGTKAAIEGRIKLIRTQIDSVTSDYDREKLQERLAKLVGGVAVINVGAATETEMKEKKARVEDALHATRAAVEEGIVPGGGVAYLRALPALEKLKPGGEQDFGVAIIRRALQEPLRKIASNAGVEGAVVINKVREGTGAFGYNARTEVYEDLEKAGVIDPTKVERTALQNAASVASLLLTTEAMVAERPKGKAKGGGAGAGMPDYGGDDMDY
# notes: printed Mw 58.1 kDa; no His-tag added; UniProt may number the two paralogues the other way round (groL1 for the stand-alone gene); also called Cpn60; chaperonin GroEL; source: E. coli BL21(DE3), pET22b (pET22b-GroEL2-NoHis); purified (100-kDa cut-off concentration, Superdex 200) for the pull-down, in cell extract for native PAGE; copies: 14
# B3: Myxococcus xanthus DK1622 GroES without His-tag (natural protein, UniProt Q1D2S2 1-96, looked up)
# chain: MKIRPLQDRLIVKRVAEENKTKGGLFIPDTAKEKPLEGKVIAVGNGKVQEDGKVRPLDIKAGDTILFSKYAGTEIKLDGEEHLILREEDVLGVIEK
# notes: printed Mw 10.7 kDa; construct named NoHis; also called Cpn10; GroES-NoHis; source: E. coli BL21(DE3), pET28a-GroES-NoHis, in cell extract
# Target: the molecule itself
# Test: native gel or EMSA; native PAGE (no SDS or mercaptoethanol, run in ice-water) of extracts of E. coli BL21(DE3) cells expressing GroEL1, GroEL2 or GroES alone, or GroEL1/GroEL2 co-expressed with GroES
row,Protein,stoichiometry N
1,B1,14
2,B2,14
3,B3,7

# Source: publication PMC5406781, “Myxococcus xanthus DK1622 Coordinates Expressions of the Duplicate groEL and Single groES Genes for Synergistic Functions of GroELs and GroES” (Frontiers in Microbiology, 2017)
